The assay addresses T1, human GITR on cells (human, UniProt Q9Y5U5 26-241).
T1 chain: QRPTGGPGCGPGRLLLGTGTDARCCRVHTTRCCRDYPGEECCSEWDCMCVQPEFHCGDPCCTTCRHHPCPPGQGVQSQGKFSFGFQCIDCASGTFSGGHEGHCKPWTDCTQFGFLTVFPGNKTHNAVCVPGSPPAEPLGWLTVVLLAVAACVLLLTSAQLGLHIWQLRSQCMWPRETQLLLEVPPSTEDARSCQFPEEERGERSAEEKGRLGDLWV
Nature of the assay: FACS binding to activated human CD4 T cells. For orientation: A flow cytometer gives signals particle by particle.

B1: anti-GITR-IgG2-IgG1.1 (antibody)
heavy: QVQLVESGGGVVQPGRSLRLSCAASGFTFSSYGMHWVRQAPGKGLEWVAVIWYEGSNKYYADSVKGRFTISRDNSKNTLYLQMNSLRAEDTAVYYCARGGSMVRGDYYYGMDVWGQGTTVTVSSASTKGPSVFPLAPCSRSTSESTAALGCLVKDYFPEPVTVSWNSGALTSGVHTFPAVLQSSGLYSLSSVVTVPSSNFGTQTYTCNVDHKPSNTKVDKTVERKCCVECPPCPAPPVAGPSVFLFPPKPKDTLMISRTPEVTCVVVDVSHEDPEVKFNWYVDGVEVHNAKTKPREEQYNSTYRVVSVLTVLHQDWLNGKEYKCKVSNKALPSSIEKTISKAKGQPREPQVYTLPPSREEMTKNQVSLTCLVKGFYPSDIAVEWESNGQPENNYKTTPPVLDSDGSFFLYSKLTVDKSRWQQGNVFSCSVMHEALHNHYTQKSLSLSPG
light: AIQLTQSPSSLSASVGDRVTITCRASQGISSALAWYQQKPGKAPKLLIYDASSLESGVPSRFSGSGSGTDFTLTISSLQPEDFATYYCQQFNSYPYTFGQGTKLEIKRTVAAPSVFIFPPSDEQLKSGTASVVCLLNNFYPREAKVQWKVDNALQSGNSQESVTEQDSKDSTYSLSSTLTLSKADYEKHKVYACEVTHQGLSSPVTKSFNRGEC
By EC50 is commonly meant the concentration at which the effect is half-maximal. Higher therefore signals a less potent agent. Consider B1, for which a half-maximal effect (EC50) was put at 0.163 nM.

B2: anti-GITR-IgG2 (antibody)
heavy: QVQLVESGGGVVQPGRSLRLSCAASGFTFSSYGMHWVRQAPGKGLEWVAVIWYEGSNKYYADSVKGRFTISRDNSKNTLYLQMNSLRAEDTAVYYCARGGSMVRGDYYYGMDVWGQGTTVTVSSASTKGPSVFPLAPCSRSTSESTAALGCLVKDYFPEPVTVSWNSGALTSGVHTFPAVLQSSGLYSLSSVVTVPSSNFGTQTYTCNVDHKPSNTKVDKTVERKCCVECPPCPAPPVAGPSVFLFPPKPKDTLMISRTPEVTCVVVDVSHEDPEVQFNWYVDGVEVHNAKTKPREEQFNSTFRVVSVLTVVHQDWLNGKEYKCKVSNKGLPAPIEKTISKTKGQPREPQVYTLPPSREEMTKNQVSLTCLVKGFYPSDIAVEWESNGQPENNYKTTPPMLDSDGSFFLYSKLTVDKSRWQQGNVFSCSVMHEALHNHYTQKSLSLSPGK
light: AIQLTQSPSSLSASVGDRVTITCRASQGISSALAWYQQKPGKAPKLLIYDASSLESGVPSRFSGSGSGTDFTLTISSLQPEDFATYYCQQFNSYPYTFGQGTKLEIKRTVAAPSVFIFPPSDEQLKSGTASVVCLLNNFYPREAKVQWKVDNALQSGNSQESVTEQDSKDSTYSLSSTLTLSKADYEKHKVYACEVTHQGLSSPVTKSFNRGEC
In turn, B2 had a concentration giving a half-maximal response (EC50) of 0.277 nM.

(Values after US20200299400A1 (published 2020).)
